The values that follow come from paper PMC2802452.

In this experiment the target is HLA-A2-mCFP (human). As to the kind of experiment: FRET or BRET.

B1: Bap31-mYFP-KKEE (natural protein)
chain: MSLQWTAVATFLYAEVFVVLLLCIPFISPKRWQKIFKSRLVELLVSYGNTFFVVLIVILVLLVIDAVREIRKYDDVTEKVNLQNNPGAMEHFHMKLFRAQRNLYIAGFSLLLSFLLRRLVTLISQQATLLASNEAFKKQAESASEAAKKYMEENDQLKKGAAVDGGKLDVGNAEVKLEEENRSLKADLQKLKDELASTKQKLEKAENQVLAMRKQSEGLTKEYDRLLEEHAKLQAAVDGPMDKKEE
The molecule B1 yielded an FRET efficiency at A:D of 1 of 5% and a fold FRET at A:D 1:1 after feeding Tax peptide, against controls of 2 fold.
